Reference: patent publication US20140213531A1 (POLYPHOR, published 2014)
Bridges are numbered along the chain shown (N, C = ends). [ ]: non-standard residue; d: D form. Gly(octyl) = CCCCCCCC[C@H](N)C(=O)O; Pro(4NHCOPhe) = not defined here; Cha = N[C@@H](CC1CCCCC1)C(=O)O

Experiments:
Test in all cases: enzyme inhibition, pNA substrate
Chymase, from human skin = biological target: T1, Chymase, from human skin (human, UniProt P23946 22-247)
T1 construct: purified natural enzyme, bought
T1 sequence (looked up): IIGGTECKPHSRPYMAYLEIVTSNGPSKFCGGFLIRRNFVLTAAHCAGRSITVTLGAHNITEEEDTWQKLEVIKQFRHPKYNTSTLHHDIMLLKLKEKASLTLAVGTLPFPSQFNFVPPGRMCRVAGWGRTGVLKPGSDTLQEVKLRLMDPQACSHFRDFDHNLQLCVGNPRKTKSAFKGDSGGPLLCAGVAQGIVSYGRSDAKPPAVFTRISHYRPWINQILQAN

[1] = biological target: T2, Tryptase, from human lung (human, UniProt Q15661 31-275, limits assumed)
T2 construct: purified natural enzyme, bought

[2] = biological target: T3, CathepsinG, from human neutrophils (human, UniProt P08311 21-244)
T3 construct: purified natural enzyme, bought
T3 sequence (looked up): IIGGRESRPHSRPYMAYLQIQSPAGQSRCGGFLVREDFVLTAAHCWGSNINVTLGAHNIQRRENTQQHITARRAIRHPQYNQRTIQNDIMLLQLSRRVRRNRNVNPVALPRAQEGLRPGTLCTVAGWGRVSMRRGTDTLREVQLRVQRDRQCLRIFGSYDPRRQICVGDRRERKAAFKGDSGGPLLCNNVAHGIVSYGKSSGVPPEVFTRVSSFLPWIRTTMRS

[3] = biological target: T4, Urokinase from human urine (human, UniProt P00749 21-431, limits assumed)
T4 construct: purified natural enzyme, bought

[4] = biological target: T5, Chymotrypsin, from human pancreas (human, UniProt P17538 19-263)
T5 construct: purified natural enzyme, bought

[5] = biological target: T6, Coagulation Factor Xa, from uman plasma (human, UniProt P00742 41-179; P00742 235-488, limits assumed)
T6 construct: purified natural enzyme, bought; also called FXa

[6] = biological target: T7, Trypsin, Iodination grade, from human pancreas (human, UniProt P07477 24-247)
T7 construct: purified natural enzyme, bought

[7] = biological target: Thrombin, from Human Plasma, high activity (human, UniProt P00734 328-622)

T2 sequence (Q15661 31-275 limits assumed): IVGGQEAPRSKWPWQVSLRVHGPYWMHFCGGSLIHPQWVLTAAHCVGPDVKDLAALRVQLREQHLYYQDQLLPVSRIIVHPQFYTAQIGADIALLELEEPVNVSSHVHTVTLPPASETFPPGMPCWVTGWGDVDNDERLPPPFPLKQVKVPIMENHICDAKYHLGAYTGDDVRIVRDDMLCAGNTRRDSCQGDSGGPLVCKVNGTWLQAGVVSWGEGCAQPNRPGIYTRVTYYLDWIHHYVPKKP
T6 sequence (P00742 41-179 limits assumed, chain 1 of 2): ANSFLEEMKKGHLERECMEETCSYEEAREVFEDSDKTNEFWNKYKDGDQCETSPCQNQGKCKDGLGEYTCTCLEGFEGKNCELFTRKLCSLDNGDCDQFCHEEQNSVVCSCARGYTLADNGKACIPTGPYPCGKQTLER
T6 sequence (P00742 235-488 limits assumed, chain 2 of 2): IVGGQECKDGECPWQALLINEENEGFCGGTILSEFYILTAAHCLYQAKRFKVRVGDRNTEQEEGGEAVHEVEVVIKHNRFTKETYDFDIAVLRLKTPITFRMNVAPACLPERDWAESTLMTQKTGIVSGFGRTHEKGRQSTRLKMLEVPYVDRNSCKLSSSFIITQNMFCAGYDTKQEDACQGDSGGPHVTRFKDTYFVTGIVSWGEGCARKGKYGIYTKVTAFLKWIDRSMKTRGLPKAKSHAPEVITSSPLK
T5 sequence (P17538 19-263): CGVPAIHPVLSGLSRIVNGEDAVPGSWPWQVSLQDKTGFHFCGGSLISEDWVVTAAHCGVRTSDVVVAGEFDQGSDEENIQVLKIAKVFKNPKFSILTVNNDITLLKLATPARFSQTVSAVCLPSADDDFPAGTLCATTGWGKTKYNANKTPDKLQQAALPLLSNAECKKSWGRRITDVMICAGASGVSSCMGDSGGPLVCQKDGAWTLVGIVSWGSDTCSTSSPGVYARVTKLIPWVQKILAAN

B1: Example 158 (peptide)
peptide: XCTASXPPQCQ
HELM: PEPTIDE1{[O=C([C@H](CCc1ccccc1)N[*:1])[*:2]].C.T.A.S.[Cha].P.P.Q.C.Q.[dP].P}$PEPTIDE1,PEPTIDE1,2:R3-10:R3|PEPTIDE1,PEPTIDE1,1:R1-13:R2$$$V2.0
SMILES: C[C@@H]1NC(=O)[C@H]([C@@H](C)O)NC(=O)[C@@H]2CSSC[C@H](NC(=O)[C@H](CCC(N)=O)NC(=O)[C@@H]3CCCN3C(=O)[C@@H]3CCCN3C(=O)[C@H](CC3CCCCC3)NC(=O)[C@H](CO)NC1=O)C(=O)N[C@@H](CCC(N)=O)C(=O)N1CCC[C@@H]1C(=O)N1CCC[C@H]1C(=O)N[C@@H](CCc1ccccc1)C(=O)N2
- % inhibition at 100 µM (Chymase, from human skin): 0%
- % inhibition at 100 µM [1]: 13%
- % inhibition at 100 µM [2]: 55%
- % inhibition at 100 µM [3]: 10%
- % inhibition at 100 µM [4]: 93%

B2: Example 127 (peptide)
peptide: XCTASIPPQCY
HELM: PEPTIDE1{[Nle].C.T.A.S.I.P.P.Q.C.Y.[dK].E}$PEPTIDE1,PEPTIDE1,2:R3-10:R3|PEPTIDE1,PEPTIDE1,1:R1-13:R2$$$V2.0
SMILES: CCCC[C@@H]1NC(=O)[C@H](CCC(=O)O)NC(=O)[C@@H](CCCCN)NC(=O)[C@H](Cc2ccc(O)cc2)NC(=O)[C@@H]2CSSC[C@H](NC1=O)C(=O)N[C@@H]([C@@H](C)O)C(=O)N[C@@H](C)C(=O)N[C@@H](CO)C(=O)N[C@@H]([C@@H](C)CC)C(=O)N1CCC[C@H]1C(=O)N1CCC[C@H]1C(=O)N[C@@H](CCC(N)=O)C(=O)N2
- % inhibition at 100 µM [1]: 0%
- % inhibition at 100 µM [2]: 64%
- % inhibition at 100 µM [4]: 47.2%
- % inhibition at 100 µM [5]: 13.3%
- % inhibition at 100 µM [6]: 0%

B3: Example 177 (peptide)
peptide: XCTASIPPQCY
HELM: PEPTIDE1{[CCCCCCCC[C@H](N[*:1])C(=O)[*:2]].C.T.A.S.I.P.P.Q.C.Y.[dP].Q}$PEPTIDE1,PEPTIDE1,2:R3-10:R3|PEPTIDE1,PEPTIDE1,1:R1-13:R2$$$V2.0
SMILES: CCCCCCCC[C@@H]1NC(=O)[C@H](CCC(N)=O)NC(=O)[C@H]2CCCN2C(=O)[C@H](Cc2ccc(O)cc2)NC(=O)[C@@H]2CSSC[C@H](NC1=O)C(=O)N[C@@H]([C@@H](C)O)C(=O)N[C@@H](C)C(=O)N[C@@H](CO)C(=O)N[C@@H]([C@@H](C)CC)C(=O)N1CCC[C@H]1C(=O)N1CCC[C@H]1C(=O)N[C@@H](CCC(N)=O)C(=O)N2
notes: also called Ex. 177
- % inhibition at 100 µM [1]: 15%
- % inhibition at 100 µM [2]: 54%
- % inhibition at 100 µM [3]: 12%
- % inhibition at 100 µM [7]: 17%
- % inhibition at 100 µM [4]: 86%

B4: Example 148 (peptide)
peptide: XCTASXPPQCQ
HELM: PEPTIDE1{[CCCCCCCC[C@H](N[*:1])C(=O)[*:2]].C.T.A.S.[CCCCCCCC[C@H](N[*:1])C(=O)[*:2]].P.P.Q.C.Q.[dP].P}$PEPTIDE1,PEPTIDE1,2:R3-10:R3|PEPTIDE1,PEPTIDE1,1:R1-13:R2$$$V2.0
SMILES: CCCCCCCC[C@@H]1NC(=O)[C@@H]2CCCN2C(=O)[C@H]2CCCN2C(=O)[C@H](CCC(N)=O)NC(=O)[C@@H]2CSSC[C@H](NC1=O)C(=O)N[C@@H]([C@@H](C)O)C(=O)N[C@@H](C)C(=O)N[C@@H](CO)C(=O)N[C@@H](CCCCCCCC)C(=O)N1CCC[C@H]1C(=O)N1CCC[C@H]1C(=O)N[C@@H](CCC(N)=O)C(=O)N2
notes: also called Ex. 148
- % inhibition at 100 µM [1]: 30%
- % inhibition at 100 µM [2]: 52%
- % inhibition at 100 µM [3]: 12%
- % inhibition at 100 µM [7]: 32%
- % inhibition at 100 µM [4]: 91%

B5: Example 141 (peptide)
peptide: XCTASXPPQCY
HELM: PEPTIDE1{[Nle].C.T.A.S.[Cha].P.P.Q.C.Y.[dP].P}$PEPTIDE1,PEPTIDE1,2:R3-10:R3|PEPTIDE1,PEPTIDE1,1:R1-13:R2$$$V2.0
SMILES: CCCC[C@@H]1NC(=O)[C@@H]2CCCN2C(=O)[C@H]2CCCN2C(=O)[C@H](Cc2ccc(O)cc2)NC(=O)[C@@H]2CSSC[C@H](NC1=O)C(=O)N[C@@H]([C@@H](C)O)C(=O)N[C@@H](C)C(=O)N[C@@H](CO)C(=O)N[C@@H](CC1CCCCC1)C(=O)N1CCC[C@H]1C(=O)N1CCC[C@H]1C(=O)N[C@@H](CCC(N)=O)C(=O)N2
notes: also called Ex. 141
- % inhibition at 100 µM (Chymase, from human skin): 0%
- % inhibition at 100 µM [1]: 44.5%
- % inhibition at 100 µM [2]: 63.4%
- % inhibition at 100 µM [7]: 0%
- % inhibition at 100 µM [4]: 72.9%
- % inhibition at 100 µM [5]: 15.3%
- % inhibition at 100 µM [6]: 0%

B6: Example 143 (peptide)
peptide: XCTASIPPQCQ
HELM: PEPTIDE1{[O=C([C@H](CCc1ccccc1)N[*:1])[*:2]].C.T.A.S.I.P.P.Q.C.Q.[dP].P}$PEPTIDE1,PEPTIDE1,2:R3-10:R3|PEPTIDE1,PEPTIDE1,1:R1-13:R2$$$V2.0
SMILES: CC[C@H](C)[C@@H]1NC(=O)[C@H](CO)NC(=O)[C@H](C)NC(=O)[C@H]([C@@H](C)O)NC(=O)[C@@H]2CSSC[C@H](NC(=O)[C@H](CCC(N)=O)NC(=O)[C@@H]3CCCN3C(=O)[C@@H]3CCCN3C1=O)C(=O)N[C@@H](CCC(N)=O)C(=O)N1CCC[C@@H]1C(=O)N1CCC[C@H]1C(=O)N[C@@H](CCc1ccccc1)C(=O)N2
notes: also called Ex. 143
- % inhibition at 100 µM (Chymase, from human skin): 0%
- % inhibition at 100 µM [1]: 18%
- % inhibition at 100 µM [2]: 28%
- % inhibition at 100 µM [7]: 12%
- % inhibition at 100 µM [4]: 91%
- % inhibition at 100 µM [5]: 0%
- % inhibition at 100 µM [6]: 12%

Binder: cyclo([Gly(octyl)]CTAS[Cha]P[Pro(4NHCOPhe)]QCQ[dP]P) (disulfide 2-10; not fully specified; reading uncertain, also called Ex. 160) [Example 160]
- % inhibition at 100 µM [1]: 30%
- % inhibition at 100 µM [2]: 55%
- % inhibition at 100 µM [3]: 14%
- % inhibition at 100 µM [7]: 23%
- % inhibition at 100 µM [4]: 94%

B7: Example 104 (peptide)
peptide: XETASIPPQKY
HELM: PEPTIDE1{[Nle].E.T.A.S.I.P.P.Q.K.Y.[dP].P}$PEPTIDE1,PEPTIDE1,1:R1-13:R2$$$V2.0
SMILES: CCCC[C@@H]1NC(=O)[C@@H]2CCCN2C(=O)[C@H]2CCCN2C(=O)[C@H](Cc2ccc(O)cc2)NC(=O)[C@H](CCCCN)NC(=O)[C@H](CCC(N)=O)NC(=O)[C@@H]2CCCN2C(=O)[C@@H]2CCCN2C(=O)[C@H]([C@@H](C)CC)NC(=O)[C@H](CO)NC(=O)[C@H](C)NC(=O)[C@H]([C@@H](C)O)NC(=O)[C@H](CCC(=O)O)NC1=O
- % inhibition at 100 µM (Chymase, from human skin): 0%
- % inhibition at 100 µM [1]: 0%
- % inhibition at 100 µM [2]: 53.5%
- % inhibition at 100 µM [3]: 0%
- % inhibition at 100 µM [6]: 0%

B8: Example 109 (peptide)
peptide: XQTASIPPQTY
HELM: PEPTIDE1{[Nle].Q.T.A.S.I.P.P.Q.T.Y.[dP].P}$PEPTIDE1,PEPTIDE1,1:R1-13:R2$$$V2.0
SMILES: CCCC[C@@H]1NC(=O)[C@@H]2CCCN2C(=O)[C@H]2CCCN2C(=O)[C@H](Cc2ccc(O)cc2)NC(=O)[C@H]([C@@H](C)O)NC(=O)[C@H](CCC(N)=O)NC(=O)[C@@H]2CCCN2C(=O)[C@@H]2CCCN2C(=O)[C@H]([C@@H](C)CC)NC(=O)[C@H](CO)NC(=O)[C@H](C)NC(=O)[C@H]([C@@H](C)O)NC(=O)[C@H](CCC(N)=O)NC1=O
notes: also called Ex. 109
- % inhibition at 100 µM [2]: 54.1%
- % inhibition at 100 µM [7]: 0%
- % inhibition at 100 µM [4]: 13.8%
- % inhibition at 100 µM [6]: 0%

B9: Example 155 (peptide)
peptide: XCTASXPPQCF
HELM: PEPTIDE1{[O=C([C@H](CCc1ccccc1)N[*:1])[*:2]].C.T.A.S.[Cha].P.P.Q.C.F.[dP].P}$PEPTIDE1,PEPTIDE1,2:R3-10:R3|PEPTIDE1,PEPTIDE1,1:R1-13:R2$$$V2.0
SMILES: C[C@@H]1NC(=O)[C@H]([C@@H](C)O)NC(=O)[C@@H]2CSSC[C@H](NC(=O)[C@H](CCC(N)=O)NC(=O)[C@@H]3CCCN3C(=O)[C@@H]3CCCN3C(=O)[C@H](CC3CCCCC3)NC(=O)[C@H](CO)NC1=O)C(=O)N[C@@H](Cc1ccccc1)C(=O)N1CCC[C@@H]1C(=O)N1CCC[C@H]1C(=O)N[C@@H](CCc1ccccc1)C(=O)N2
notes: also called Ex. 155
- % inhibition at 100 µM [1]: 30%
- % inhibition at 100 µM [2]: 52%
- % inhibition at 100 µM [3]: 12%
- % inhibition at 100 µM [7]: 19%
- % inhibition at 100 µM [4]: 83%
- % inhibition at 100 µM [6]: 18%
